B1: c-Myc-tagged wild-type XAP2 [human] / ERα, transfected in HeLa cells [not stated] (parent)
chain 1: MADIIARLREDGIQKRVIQEGRGELPDFQDGTKATFHYRTLHSDDEGTVLDDSRARGKPMELIIGKKFKLPVWETIVCTMREGEIAQFLCDIKHVVLYPLVAKSLRNIAVGKDPLEGQRHCCGVAQMREHSSLGHADLDALQQNPQPLIFHMEMLKVESPGTYQQDPWAMTDEEKAKAVPLIHQEGNRLYREGHVKEAAAKYYDAIACLKNLQMKEQPGSPEWIQLDQQITPLLLNYCQCKLVVEEYYEVLDHCSSILNKYDDNVKAYFKRGKAHAAVWNAQEAQADFAKVLELDPALAPVVSRELRALEARIRQKDEEDKARFRGIFSH
chain 2: MTMTLHTKASGMALLHQIQGNELEPLNRPQLKIPLERPLGEVYLDSSKPAVYNYPEGAAYEFNAAAAANAQVYGQTGLPYGPGSEAAAFGSNGLGGFPPLNSVSPSPLMLLHPPPQLSPFLQPHGQQVPYYLENEPSGYTVREAGPPAFYRPNSDNRRQGGRERLASTNDKGSMAMESAKETRYCAVCNDYASGYHYGVWSCEGCKAFFKRSIQGHNDYMCPATNQCTIDKNRRKSCQACRLRKCYEVGMMKGGIRKDRRGGRMLKHKRQRDDGEGRGEVGSAGDMRAANLWPSPLMIKRSKKNSLALSLTADQMVSALLDAEPPILYSEYDPTRPFSEASMMGLLTNLADRELVHMINWAKRVPGFVDLTLHDQVHLLECAWLEILMIGLVWRSMEHPGKLLFAPNLLLDRNQGKCVEGMVEIFDMLLATSSRFRMMNLQGEEFVCLKSIILLNSGVYTFLSSTLKSLEEKDHIHRVLDKITDTLIHLMAKAGLTLQQQHQRLAQLLLILSHIRHMSNKGMEHLYSMKCKNVVPLYDLLLEMLDAHRLHAPTSRGGASVEETDQSHLATAGSTSSHSLQKYYITGEAEGFPATV

Variants of: B1
Test: co-immunoprecipitation (IP with ERα antibody, Western blot with c-Myc antibody, band densitometry)
Conditions: 24 h after transfection
[1] = 10 nM E2 for 1 h, parent: 1, read off a plot
[2] = DMSO (veh) for 1 h, parent: 0.9, read off a plot

chain 1 MADIIARLREDGIQKRVIQEGRGELPDFQDGTKATFHYRTLHSDDEGTVLDDSRARGKPMELIIGKKFKLPVWETIVCTMREGEIAQFLCDIKHVVLYPLVAKSLRNIAVGKDPLEGQRHCCGVAQMREHSSLGHADLDALQQNPQPLIFHMEMLKVESPGTYQQDPWAMTDEEKAKAVPLIHQEGNRLYREGHVKEAAAKYYDAIACLKNLQMKEQPGSPEWIQLDQQITPLLLNYCQCKLVVEEYYEVLDHCSSILNKYDDNVKAYFKWGKAHAAVWNAQEAQADFAKVLELDPALAPVVSRELRALEARIRQKDEEDKARFRGIFSH [chain 1 R271W]
ratio to parent [1]: 0.68
ratio to parent [2]: 0.85

chain 1 MADIIARLREDGIQKRVIQEGRGELPDFQDGTKATFHYRTLHSDDEGTMLDDSRARGKPMELIIGKKFKLPVWETIVCTMREGEIAQFLCDIKHVVLYPLVAKSLRNIAVGKDPLEGQRHCCGVAQMREHSSLGHADLDALQQNPQPLIFHMEMLKVESPGTYQQDPWAMTDEEKAKAVPLIHQEGNRLYREGHVKEAAAKYYDAIACLKNLQMKEQPGSPEWIQLDQQITPLLLNYCQCKLVVEEYYEVLDHCSSILNKYDDNVKAYFKRGKAHAAVWNAQEAQADFAKVLELDPALAPVVSRELRALEARIRQKDEEDKARFRGIFSH [chain 1 V49M]
ratio to parent [1]: 0.97
ratio to parent [2]: 0.85
